B1: TPR t1 (parent)
chain: GACCAAUCUGCCCUCAGAGCUCGAGAACAUCUUCGGAUGCAGAGGAGGCAGGCUUCGGUGGCGCGAUAGCGCCAACGUCCUCAACCUCCAAUGCAUCCCACCACAUGAUGAUGCCUGAAGAGCCUUGGUUUUUUG

Variants of: B1
Test: polymerase ribozyme fitness, log enrichment relative to wild type (log ratio); higher = more active; in vitro selection for triplet polymerase activity
How it was run: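 After PCR construction and transcription, each subunit's mutant library from a heterodimeric triplet polymerase ribozyme was annealed with a biotinylated primer, the partner subunit and triplets. Incubation was frozen, at −7 °C, and extended constructs were gel-excised, bound to streptavidin beads and amplified by RT-PCR, in one selection round done in triplicate. Fitness is the logarithm of a genotype's enrichment divided by that of the wild type, from inverse-variance-weighted replicate averages of Illumina-sequenced inputs and outputs. The base of the logarithm is 2, and genotypes needed ≥10 input reads and ≥1 read per output.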

Row | Variant | polymerase ribozyme fitness (log ratio)
1 | GACCAAUCUGCCCUCAGAGCUCGAGAACAUCUUAGGAUGCAGAGGAGGCAGGCUUCGGAGGCGCGAUAGCGCCAACGUCCUCAACCUCCAAUGCAUCCCACCACAUGAUGAUGACUGAAGAGCCUUGGUUUUUUG [C34A U59A C114A] | -5.37
2 | GACCAAUCUGCCCUCAGAGCUCGAGAACAUCUUAGGAUGCAGAGGAGGCAGGCUUCGGUGGCGCGAUAGCGCCAACGUCCUCAACCUCCAAUGCAUCCCACCACAUGAUGAUGCCUGAAAAGCCUUGGUUUUUUG [C34A G120A] | -2.29
3 | GACCAAUCUGCCCUCAGAGCUCGAGAACAUCUUAGGAUGCAGAGGAGGCAGGCUCCGGUCGCGCGAUAGCGCCAACGUCCUCAACCUCCAAUGCAUCCCACCACAUGAUGAUGCCUGAAGAGCCUUGGGUUUUUG [C34A U55C G60C U129G] | -4.03
4 | GACCAAUCUGCCCUCAGAGCUCGAGAACAUCUUAGGAUGCAGAGGAGGCAGGCUUCGGUGGCGCGAUAGCGCCAACGUCCUCAACCUCCAAUGCAUCCCACCACAUGAUGAUUCCUGAAGAGCCUUGGUUUUUUG [C34A G113U] | -5.39
5 | GACCAAUCUGCCCUCAGAGCUCGAGAACAUCUUGGGAUGCAGAGGAGGCAGGCUUCGGUGGCGCGAUAGCGCCAACGUCCUCAACCUCCAAUGCAUCCCACCACAUGAUGAUGCCUGAAGAGCCAUGGUUUUUUG [C34G U125A] | -5.11
6 | GACCAAUCUGCCCUCAGAGCUCGAGAACAUCUUGGGAUGCAGAGGAGGCAGGCUUCGGUGGCGCGAUAGCGUCAACGUCCUCAACCUCCAAUGCAUCCCACCACAUGAUGAUGCCUGAAGAGCCUUGGUUUUUUG [C34G C72U] | -5.89
7 | GACCAAUCUGCCCUCAGAGCUCGAGAACAUCUUGGGAUGCAGAGGAGGCAGGCUUCGGUGGCGCGAUAGCGUCAACGUCCUCAACCUCCAAUGCAUCCCACCACAUGAAGAUGCCUGAUGAGUCUUGGUUUUUUG [C34G C72U U109A A119U C123U] | -8.4
8 | GACCAAUCUGCCCUCAGAGCUCGAGAACAUCUUAGGAUGCAGAGGAGGCAGGCUUCGGUGGCGCGAUAACGCCAACGUCCUCAACCUCCAAUGCAUCCCACCACAUGAUGAUGCCUGAAGAGCCUUGGUUUUUUG [C34A G69A] | -5.23
9 | GACCAAUCUGCCCUCAGAGCUCGAGAACAUCUUAGGAUGCAGAGGAGGCAGGCUUCGGUGGCGCGAUAGCUCCAACGUCCUCAACCUCCAAAGCAUCCCACCACAUGAUGAUGGCUGAAGAGCCUUGGUUUUUUG [C34A G71U U92A C114G] | -7.83
10 | GACCAAUCUGCCCUCAGAGCUCGAGAACAUCUUGGGAUGCAGAGGAGGCAGGCUUCGGUGGCGUGAUAGCGCCAACGUCCUCAACCUCCAAUGCAUCCCACCACAUGAUGAUGCCUGAAGAGCCUUGGUUUUUUG [C34G C64U] | -6.18
11 | GACCAAUCUGCCCUCAGAGCUCGAGAACAUCUUGGGAUGCAGAGGAGGCAGGCUUCGGUGUCGUGAUAGCGCCAACGUCCUCAACCUCCAAUGCAUCCAACCACAUGAUGAUGCCUGAAAGGCCUUGGUUUUUUG [C34G G61U C64U C99A G120A A121G] | -5.39
12 | GACCAAUCUGCCCUCAGAGCUCGAGAACAUCUUAGGAUGCAGAGGAGGCAGGCUUCGGUGGCGCGAUAGCUCCAGCGUCCUCAACCUCCAAUGCAUCCCACCACAUGAUGAUGCCUGAAGAGCCUUGGUUUUUUG [C34A G71U A75G] | -4.12
13 | GACCAAUCUGCCCUCAGAGCUCGAGAACAUCUUAGGAUGCAGAGGAGGCAGGCUUCGGUGGCGCGAUAGCGCCAACGUCCUCAACCACCAAUGCAUCCCACCACGUGAUGAUGCCUGAAGAGCCUUGGUUUUUUG [C34A U87A A105G] | -6.02
14 | GACCAAUCUGCCCUCAGAGCUCGAGAACAUCUUGGGAUGCAGAGGAGGCAGGCUUCGGUGGUGCGAUAGCGCCAACGUCCUCAACCUCCAAUGGAUCCCACCACCUGAUGAUGCCUGAAGAGCCUUGGUCUUUUG [C34G C62U C94G A105C U130C] | -7.14
15 | GACCAAUCUGCCCUCAGAGCUCGAGAACAUCUUGGGAUGCAGAGGAGGCAGGCUUCGGUGGCGCGAUAGCGCCAACGUCCUCAACCUCCAAUGCAUCCCACCACAUGGUGAUGCCUGAAGAGCCUUGGUUUUUUG [C34G A108G] | -6.09
16 | GACCAAUCUGCCCUCAGAGCUCGAGAACAUCUUGGGAUGCAGAGGAGGCAGGCUUCGGUGGCGCGAUAGCGCCAACGUACUCAACCUCCACUGCAUUCUCUCACAUGAUGAUCCCUGAAGAGCCUUGGUAUUUUG [C34G C79A A91C C97U C99U A100C C101U G113C U130A] | -6.71
17 | GACCAAUCUGCCCUCAGAGCUCGAGAACAUCUUGGGAUGCAGAGGAGGCAGGCUUCGGUGGCGCGAUAGCGCCAACGUCCUCAACCUCCAAUGCAUCCCACCACAUGAUGAUGCGUGAAGAGCCUUGGUUUUUUG [C34G C115G] | -7.42
18 | GACCAAUCUGCCCUCAGAGCUCGAGAACAUCUUUGGAUGCAGAGGAGGCAGGCUUCGGUGGAGCGAUAGCGCCAACGUCCUCAACCUCCAAUGCAUCCCACCACAUGAUGAUGCCUGAAGAGCCUUGGUUUUUUG [C34U C62A] | -4.23
19 | GACCAAUCUGCCCUCAGAGCUCGAGAACAUCUUGGGAUGCAGAGGAGGCAGGCUUCGGUGGCGCGAUAGCGCCAACGUCCUCAACCUCCAAUGCAUCGCACCACAUGAUGAUGCAUGAAGAGCCAUGGUUUUUUG [C34G C98G C115A U125A] | -7.53
20 | GACCAAUCUGCCCUCAGAGCUCGAGAACAUCUUGGGAUGCAGAGGAGGCAGGCUUCGGUGGCGCGAUAGCGCCAACGUCCUCAACCUCCAAUGCAUCCCACCACAUGAUGAUGCCUGAAAAGCCUUGGUUUUUUG [C34G G120A] | -5.16
21 | GACCAAUCUGCCCUCAGAGCUCGAGAACAUCUUGGGAUGCAGAGGAGUCAGGCUUCGGUGGCGCGAUAGCGCCAACGUCCUCAACCUCCAAUGCAUCCCACCACAUGAUGAUGCCUGAAGAACCUUGGUUUUUUG [C34G G48U G122A] | -7.95
